Measured values published in US20240132578A1.

Legend:
Assay in all cases: cell-based or functional assay
[1] = molecular target: HIV-1 92UG024 envelope glycoprotein (Env), clade D pseudovirus (HIV-1)
[2] = molecular target: HIV-1 93UG077 envelope glycoprotein (Env), clade A pseudovirus (HIV-1)
[3] = molecular target: HIV-1 MGRM-A-010 envelope glycoprotein (Env), clade A pseudovirus (HIV-1)
[4] = molecular target: HIV-1 MGRM-C-026 envelope glycoprotein (Env), clade C pseudovirus (HIV-1)
[5] = molecular target: HIV-1 MGRM-C-028 envelope glycoprotein (Env), clade C pseudovirus (HIV-1)
[6] = molecular target: HIV-1 Env of isolate 93IN905 (clade C) (HIV-1)
[7] = molecular target: HIV-1 Env of isolate MGRM-C-028 (clade C) (HIV-1)
[8] = molecular target: HIV-1 93IN905 Env (HIV-1 isolate 93IN905 (clade C))
[9] = molecular target: HIV-1 93UG077 Env (HIV-1 isolate 93UG077 (clade A))
[10] = molecular target: HIV-1 APV6 Env (HIV-1 isolate APV6 (clade B))
[11] = molecular target: HIV-1 MGRM-D-018 Env (HIV-1 isolate MGRM-D-018 (clade D))
[12] = molecular target: HIV-1 envelope glycoprotein (Env) of isolate 92UG024 (HIV-1)
[13] = molecular target: HIV-1 envelope glycoprotein (Env) of isolate MGRM-AG-005 (HIV-1)
[14] = molecular target: HIV-1 92RW020 envelope glycoprotein (Env) on pseudovirus (HIV-1)
[15] = molecular target: aMLV envelope protein on pseudovirus (control virus)
[16] = molecular target: HIV-1 APV17 envelope glycoprotein (Env) on virus (HIV-1, clade B, isolate APV17)
[17] = molecular target: HIV-1 JRCSF envelope glycoprotein (Env) on virus (HIV-1, clade B, isolate JRCSF) (UniProt P20871)
[18] = molecular target: HIV-1 NL43 envelope glycoprotein (Env) on virus (HIV-1, clade B, isolate NL43)
[19] = molecular target: HIV-1 Env of isolate 92UG005 (subtype D) (HIV-1)
[20] = molecular target: HIV-1 Env of isolate MG RM-D-018 (subtype D) (HIV-1)
[21] = molecular target: HIV-1 Env of isolate MG RM-D-022 (subtype D) (HIV-1)
[22] = molecular target: HIV-1 Env of pseudovirus 92UG001 (HIV-1)
[23] = molecular target: HIV-1 Env of pseudovirus 98CN006 (HIV-1)
[24] = molecular target: HIV-1 envelope glycoprotein (Env) of isolate MG RM-A-006 (HIV-1)
[25] = molecular target: HIV-1 envelope glycoprotein (Env) of isolate MG RM-A-008 (HIV-1)
[26] = molecular target: HIV-1 Env of pseudovirus CAP45 (HIV-1)
[27] = molecular target: HIV-1 JR-CSF Env E321aA (HIV-1 (isolate JR-CSF, clade B)) (UniProt P20871)
[28] = molecular target: HIV-1 92RW020 Env (pseudovirus) (HIV-1)
[29] = molecular target: HIV-1 92UG005 Env (pseudovirus) (HIV-1)
[30] = molecular target: HIV-1 94UG103 Env (pseudovirus) (HIV-1)
[31] = molecular target: HIV-1 MGRM-A-010 Env (pseudovirus) (HIV-1)
[32] = molecular target: aMLV envelope (negative control pseudovirus)

Sequence of 1443_C16 (PG16) (TCN-116) (antibody) (VH): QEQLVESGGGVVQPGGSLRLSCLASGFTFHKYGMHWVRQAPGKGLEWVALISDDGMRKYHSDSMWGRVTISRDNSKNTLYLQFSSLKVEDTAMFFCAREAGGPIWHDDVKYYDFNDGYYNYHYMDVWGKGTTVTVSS
Sequence of 1443_C16 (PG16) (TCN-116) (antibody) (VL): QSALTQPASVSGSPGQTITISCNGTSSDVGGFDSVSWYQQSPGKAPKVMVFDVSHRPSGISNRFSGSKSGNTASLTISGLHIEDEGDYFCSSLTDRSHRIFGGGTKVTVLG

4858_P08 (PGT-123) (antibody)
IC50, pseudovirus neutralization [1]: > 10 µg/mL | IC80 (pseudovirus neutralization) [1]: > 10 µg/mL | IC90 (pseudovirus neutralization) [1]: > 10 µg/mL | IC95 (pseudovirus neutralization) [1]: > 10 µg/mL | IC50, pseudovirus neutralization [2]: 0.0303 µg/mL | IC80 (pseudovirus neutralization) [2]: 0.143 µg/mL | IC90 (pseudovirus neutralization) [2]: 0.35 µg/mL | IC95 (pseudovirus neutralization) [2]: 0.78 µg/mL | IC50, pseudovirus neutralization [3]: 0.492 µg/mL | IC80 (pseudovirus neutralization) [3]: 2.79 µg/mL | IC90 (pseudovirus neutralization) [3]: 6.44 µg/mL | IC95 (pseudovirus neutralization) [3]: > 10 µg/mL | IC50, pseudovirus neutralization [4]: 0.0031 µg/mL | IC80 (pseudovirus neutralization) [4]: 0.0094 µg/mL | IC90 (pseudovirus neutralization) [4]: 0.0183 µg/mL | IC95 (pseudovirus neutralization) [4]: 0.0338 µg/mL | IC50, pseudovirus neutralization [5]: 0.443 µg/mL | IC80 (pseudovirus neutralization) [5]: 2.8 µg/mL | IC90 (pseudovirus neutralization) [5]: 7.11 µg/mL | IC95 (pseudovirus neutralization) [5]: > 10 µg/mL

1496_C09 (PG9) (TCN-109) (antibody)
Neutralization IC80 [6]: 0.308 µg/mL | Neutralization IC90 [6]: 0.981 µg/mL | Neutralization IC95 [6]: 3.31 µg/mL | neutralization IC50 [6]: 0.048 µg/mL | Neutralization IC80 [7]: 0.645 µg/mL | Neutralization IC90 [7]: 1.65 µg/mL | Neutralization IC95 [7]: 3.71 µg/mL | neutralization IC50 [7]: 0.121 µg/mL

4838_L06 (PGT-121) (antibody)
Neutralization IC80 [8]: 0.0302 µg/mL | Neutralization IC90 [8]: 0.0645 µg/mL | Neutralization IC90 [9]: 0.369 µg/mL | Neutralization IC95 [9]: 0.74 µg/mL | Neutralization IC80 [10]: 0.145 µg/mL | Neutralization IC95 [10]: 0.569 µg/mL | Neutralization IC80 [11]: 0.0231 µg/mL | Neutralization IC90 [11]: 0.0414 µg/mL | Neutralization IC95 [11]: 0.0715 µg/mL

5141_B17 (PGT-126) (antibody)
Neutralization IC80 [12]: > 10 µg/mL | Neutralization IC90 [12]: > 10 µg/mL | Neutralization IC95 [12]: > 10 µg/mL | neutralization IC50 [12]: > 10 µg/mL | Neutralization IC80 [13]: > 10 µg/mL | Neutralization IC90 [13]: > 10 µg/mL | Neutralization IC95 [13]: > 10 µg/mL | neutralization IC50 [13]: 1.35 µg/mL

5343_B08 (PGT-135) (antibody)
Neutralization IC80 [14]: 3.46 µg/mL | Neutralization IC90 [14]: > 10 µg/mL | Neutralization IC95 [14]: > 10 µg/mL | neutralization IC50 [14]: 0.157 µg/mL | Neutralization IC80 [15]: > 10 µg/mL | Neutralization IC90 [15]: > 10 µg/mL | Neutralization IC95 [15]: > 10 µg/mL | neutralization IC50 [15]: > 10 µg/mL

4877_D15 (PGT-122) (antibody)
Neutralization IC80 [16]: 1.76 µg/mL | Neutralization IC90 [16]: 3.58 µg/mL | Neutralization IC95 [16]: 6.92 µg/mL | neutralization IC50 [16]: 0.522 µg/mL | Neutralization IC80 [17]: 0.245 µg/mL | Neutralization IC90 [17]: 0.494 µg/mL | Neutralization IC95 [17]: 0.926 µg/mL | neutralization IC50 [17]: 0.0727 µg/mL | Neutralization IC80 [18]: > 10 µg/mL | Neutralization IC90 [18]: > 10 µg/mL | Neutralization IC95 [18]: > 10 µg/mL | neutralization IC50 [18]: > 10 µg/mL

PGV04 (antibody)
IC50 (µg/mL), pseudovirus neutralization [19]: 0.44 µg/mL | IC50 (µg/mL), pseudovirus neutralization [20]: 17.5 µg/mL | IC50 (µg/mL), pseudovirus neutralization [21]: > 50 µg/mL | IC50, pseudovirus neutralization [22]: 0.553 µg/mL | IC50, pseudovirus neutralization [23]: 1.32 µg/mL | IC50 [24]: 0.244 µg/mL | IC50 [25]: 0.555 µg/mL

1443_C16 (PG16) (TCN-116) (antibody)
IC50, pseudovirus neutralization (TZM-bl assay) [26]: < 0.01 µg/mL

5136_H01 (PGT-131) (antibody)
Fold IC50 increase relative to wild-type [27]: 1.8 fold

5123_A06 (PGT-125) (antibody)
Neutralization by PGT-125, IC50 [28]: 0.0028 µg/mL | Neutralization by PGT-125, IC80 [28]: 0.011 µg/mL | Neutralization by PGT-125, IC90 [28]: 0.0248 µg/mL | Neutralization by PGT-125, IC95 [28]: 0.0526 µg/mL | Neutralization by PGT-125, IC50 [29]: > 10 µg/mL | Neutralization by PGT-125, IC80 [29]: > 10 µg/mL | Neutralization by PGT-125, IC90 [29]: > 10 µg/mL | Neutralization by PGT-125, IC95 [29]: > 10 µg/mL | Neutralization by PGT-125, IC50 [30]: 0.0124 µg/mL | Neutralization by PGT-125, IC80 [30]: 0.0373 µg/mL | Neutralization by PGT-125, IC90 [30]: 0.071 µg/mL | Neutralization by PGT-125, IC95 [30]: 0.129 µg/mL | Neutralization by PGT-125, IC50 [31]: 0.0055 µg/mL | Neutralization by PGT-125, IC80 [31]: 0.024 µg/mL | Neutralization by PGT-125, IC90 [31]: 0.0575 µg/mL | Neutralization by PGT-125, IC95 [31]: 0.131 µg/mL | Neutralization by PGT-125, IC50 [32]: > 10 µg/mL | Neutralization by PGT-125, IC80 [32]: > 10 µg/mL | Neutralization by PGT-125, IC90 [32]: > 10 µg/mL | Neutralization by PGT-125, IC95 [32]: > 10 µg/mL
